Numbering of substitutions follows the chain as printed. Numbers in names are those of the source.
B1: ReAV (inducible R. etli L-asparaginase, AnsA) (Rhizobium etli CFN 42) (protein)
chain: MTPSEDFVVTDRGGIVENSHRVHAAVVDAKGRLLYALGNPTRMTLARSAAKPAQALAILETEGVAGYGFDDADIALMCASHSSEDRHIARTRAMLSKIKAEEADLRCGGHPSLSEMVNRSWIKQDFIPTAVCSNCSGKHVGMLAGARAIGAGTDGYHLPDHPMQGRVKRTVAELCDLDAGDVEWGTDGCNLPTPAFPLDRLGRIYAKLASAADGSDAGEGQSTRCAALAHIFRAMARHPEMVAGEGRYCTMLMRAFDGALVGKLGADASYAIGVRASDATRQLGTDGALGISVKIEDGNLEMLYAVVTELLERLGIGSPDVRSQLASFHHPQRVNTMGVTTGGVSFPFKLRGSKSNVDDPRLAAVAR
notes: full-length wild type, 367 residues, expressed in E. coli BL21 STAR (DE3) from pET151-D-TOPO, N-terminal His6-tag cut with TEV protease; homodimer, one Zn2+ per subunit
B2: ReAV S48A mutant (enzyme, Rhizobium etli (strain CFN 42))
chain: B1 chain with S48A
notes: inducible L-asparaginase ReAV (AnsA) of Rhizobium etli strain CFN 42; printed length 367 residues; CD spectra indicate incorrect folding or strong structural distortion; source: E. coli BL21 STAR (DE3), mostly in inclusion bodies, soluble part purified as the WT protein; not shown: His6, N-terminal, cleaved
B3: ReAV K263A mutant (enzyme, Rhizobium etli (strain CFN 42))
chain: B1 chain with K263A
notes: inducible L-asparaginase ReAV (AnsA) of Rhizobium etli strain CFN 42; printed length 367 residues; source: E. coli BL21 STAR (DE3), purified as the WT protein; not shown: His6, N-terminal, cleaved
B4: ReAV K51A mutant (enzyme, Rhizobium etli (strain CFN 42))
chain: B1 chain with K51A
notes: as for B3
B5: ReAV S80A mutant (enzyme, Rhizobium etli (strain CFN 42))
chain: B1 chain with S80A
notes: as for B2
B6: ReAV C135A mutant (enzyme, Rhizobium etli (strain CFN 42))
chain: B1 chain with C135A
notes: as for B3
B7: inducible Rhizobium etli L-asparaginase ReAV, wild type (enzyme, Rhizobium etli (strain CFN 42))
chain: B1 chain
modifications: Cys249 most likely oxidized, modeled as S-hydroxycysteine in the crystal structures
notes: inducible L-asparaginase ReAV (AnsA) of Rhizobium etli strain CFN 42, encoded on plasmid p42e; printed length 367 residues; also called WT ReAV; AnsA; source: E. coli BL21 STAR (DE3), purified (HisTrap Ni, TEV cleavage, second HisTrap Ni, Superdex 200); not shown: His6, N-terminal, cleaved

Experiments:
[1] = substrate: NC(=O)C[C@H](N)C(=O)O; assay: ITC, multiple injection mode, Michaelis-Menten fit; assay type: biochemical, Rhizobium etli; conditions: 30 mM phosphate pH 9.0, 37 °C, Zn-containing native enzyme, Hill coefficient 1.6 by separate Hill fit
[2] = molecular target: the molecule itself; assay: SEC; analytical Superdex75 10/300 GL column, 50 mM phosphate buffer pH 7.5 with 20 mM NaCl, room temperature
[3] = molecular target: the molecule itself; assay: crystal structure; WT ReAV in four crystal forms (OP, MP1, MP2, MC) plus the S-SAD START data set; one or two dimers in the asymmetric unit; crystals grown at 19 °C by hanging drop vapor diffusion

Protein | stoichiometry N [2] | further results
B1 | – | Km [1]: 4.2 ± 0.3 mM; kcat [1]: 438 ± 32 s⁻¹
B2 | 2 | –
B3 | 2 | –
B4 | 2 | –
B5 | 2 | –
B6 | 2 | –
B7 | – | stoichiometry N [3]: 2
